From the nanobody polyreactivity screen of Harvey et al. (2022)

Experiment: yeast display, Sf9 membrane polyspecificity reagent, FACS + sequencing; frameworks hold sequencing errors
Method in brief: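 A synthetic nanobody library was expressed on Saccharomyces cerevisiae BJ5465 by galactose induction for 36–48 hours. The library was stained for 1 hour at 4 °C with 10% biotinylated, detergent-solubilized Sf9 membrane reagent and enriched with streptavidin microbeads before FACS. Low and high (top ~1%) gates were set on anti-HA fluorescence for expression and streptavidin fluorescence for reagent binding, and each polyreactivity label reflects the gate of origin.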

QVQLVESGGGLVQAGGSLRLSCAASGLIFKTYAIGWYRLAPGNERELVAAISWSGGGNTYYADSVKGRFTISRDNAKNTVYLQMNSLKPEDTAVYYCNAPRFVSYDYWGQGTQVTVSS
polyreactivity (PSR sort gate): high polyreactivity

QVQLVESGGGLVQAGGSLRLSCAASGRISVFNAMGWYREAPGKERELVAAITSGGSTNYADSVKGRFTISRDNAKNTVYLQMNSLKPEDTAVYYCNADVYHSHEPHYDYWGQGTQVTVSS
polyreactivity (PSR sort gate): low polyreactivity

QVQLVESGGGLVQAGGSLRLSCAASGSTFQVYAMGWYRQAPGKERELVASITSGGITYYADSVKGRFTISRDNAKNTVYLQMNSLKPEDTAVYYCAVDIRQSGELQRLFLYDYWGQGTQVTVSS
polyreactivity (PSR sort gate): low polyreactivity

QVQLVESGGGLFQAGGSLRLSCAASGTTFVRYAMGCYRQAPGKDRQLVAAISSSGATTYYADSVKGRFTISRDNAKNTVYLQMNSLKPEDTEVYYCARLYVKRHGYWGQGSQVTVSS
polyreactivity (PSR sort gate): high polyreactivity

QVQLVESGGGLVQAAGSLRLSCDASGRIFAYYAMGWYRQAPGKERELVAAISRSGVSTYYADSVKGRFTISRDNAKNTVYLQMNSLKPEDTAVYYCAARWRSGFTSGDYWGQGTQVTVSS
polyreactivity (PSR sort gate): low polyreactivity

QVQLVESGGGLFQAGGSLRLSCAASGRTFQNAMGWYRQAPGKERELVAAISVRGTRTYYADSVKGRFTISRDNAKNTVYLQMNSLKPEDTAVYYCAADRGKATSADDYWGQGTQVTVSW
polyreactivity (PSR sort gate): high polyreactivity

QVQLVESGGGLVQAGGSLRLSCAASGSTFAPYAMGWYRQAPGKERELVAAIRSSGGSTYYADSVKGRFTISRDNAKNTVYLQMNSLKPEDTAVYYCADDYYTSADYVDYYYWGQGTQVTVSS
polyreactivity (PSR sort gate): low polyreactivity

QVQLVESGGGLVQAGGSLRLSCAASGSIFWGYAMGWYRQAPGKERELVATIRNRGGSTYYADSVKGRFTISRDNAKNTVYLQMNSLKPEDTAVYYCAARFPHRHYLLYTYDYWGQGTQVTVSS
polyreactivity (PSR sort gate): low polyreactivity

QVQLVESGGGLVQAGGSLRLICAASGIILVYYDMGWYRQAPGKEMELVDTISRGGSTNYADSVMGRFTISRDNAKNTVYLQMISLKPEDTAVNYCAAGSYSIWVHLVRYYYWGQGTQVTVSS
polyreactivity (PSR sort gate): high polyreactivity

QVQLVESGGGLVQAGGSLRLSCAASGPTFWRNAMGWYRQAPGKEREFVASISRSGGSTYYADSVKGRFTISRDNAKNTVYLQMNSLKPEDTAVYYCAALGVRGYRGPGGQDYNSWGQGTQVTVSS
polyreactivity (PSR sort gate): high polyreactivity

QDQLVESGGGLVQAGGSLRLSCAASGSTFDGYAMGWYRPAPGKERELVADITSGGSTYYADSVKGRFTISRDNAKNTVYLQMNSLKPEDTAVYYCAVEGWWDDYNSRAGEFNYWGQRTQVTVSS
polyreactivity (PSR sort gate): low polyreactivity

QDQLVETAGGLVQAGVTHTLSCAASAFTFRNYAMGWYRQAPGKESEFVAAISRRGGSTYYADSVKGRFTISRDNAKNTVYLQLNCLKPEDTAVYYCATEPGKQNTYRMDYWGQGTQVTVSS
polyreactivity (PSR sort gate): high polyreactivity

QVQLVESGGGLVQAGGSLRLSCAASGRTFWSNAMGWYRPAPGKERELVAAITWSGGSTSYADSVKGRFTISRDNAKNTVYLQMNSLKPEDTAVYYCAAGKGVELAKLDYWGQGTQVTVSS
polyreactivity (PSR sort gate): low polyreactivity

QVQLVESGGGLVQAGGSLRLSCAASGRTFYDNAMGWYRQAPGKERELVAAISWSGGSTYADSVKGRFTISRDNAKNTVYLQMNSLKPEDTAVYYCNADAWLASGYRYDYWGQGTQVTVSS
polyreactivity (PSR sort gate): low polyreactivity

QVQLVESGGGLVQAGGSLRLSCAASGGTFRSYAMGWFRQAPGKERELVASISSGGTTNYADSVKGRFTISRDNAKNTVYLQLTSLKPEDTAVYYCAKSYPGRAPGYYSWGQGTQVTVSS
polyreactivity (PSR sort gate): low polyreactivity

QVKLEESGGGLVQAGGSLRLTCAASGRIFYLYGMGWYRQATGKERELVAAIDRRGTRTYYADSVKGRFTISCDNAQTTFYLQMNSVKPEDTAVYYCAARFAAYRTYTSYDYWGQGTQVTVSS
polyreactivity (PSR sort gate): high polyreactivity

QLQLEESGGGLVQAGGSLRISCDASGTIFGNYAMGWYRQAPGKERELVAAITGSGGRTYYADSVKGRFTISRDNAKNTVYLQMNSLKPEDTAVYYCAARSYGRWYYTLYNYWGQGTQVTVSS
polyreactivity (PSR sort gate): high polyreactivity

QVQLVESGGGLFQAGGSLSLRCAASGSSFDDYTMGWYRQATGKETELLAAISSAGSTNYADSVKGRFTISRDNAKNTVYLQMNILKPEDTAVYSFAAQVHPLRYDYWGQGTQVTVSS
polyreactivity (PSR sort gate): low polyreactivity

QVQLVESGGGLVQAGGSLRLSCAASGRIFRYYMRWYRQAPGKERKLVAVISSGGRTKYADSVKGRFTISRDNAKNTVYLQMNILKPQDTAVYYCAARYPREAAYVFDYWGQGTLVTVSS
polyreactivity (PSR sort gate): high polyreactivity

QVQLVESGGGLVQAGGSLRLSCAASGGTFSGYVMGWYRQAPGKERELVAAISRRGTTTYYADSVKGRFTISRDNAKNTVYLQMISLKPEDTAVYYCAAVTRWKRTLSSFYYWGQGTQVTVSS
polyreactivity (PSR sort gate): high polyreactivity

QVQLVESGGGLVQAGGSLRLSCAASGRTFVVYAMGWYRQAPGKERELVAVISFTGDSTFYADSVKGRFTISRDNAKNTVYLQMNSLKPEDTAVYYCAADLDWSPHFGLPYDYWGQGTQVTVSS
polyreactivity (PSR sort gate): low polyreactivity

QVQLVESGGGLVQAGGSLRLSCAASGSIFRTYAMGWYRQAPGKERELVATITFGGVSTYYADSVKGRFTISRDNAKTTVYVQKTSLKPEDTAVYYCAAEVYTRFWRVYRFDYWGQGTQVTVSS
polyreactivity (PSR sort gate): low polyreactivity

QVQLVESGGGLVQAGGSLRLSCAASGLIFLYYAMGWYRQAPGKERELVAAISRRGGSTYYADSVKGRFTISRDNAKNTVYLQMNSLKPEDTAVYYCAAKYESYPGGIWTYYYWGQGTQVTVSS
polyreactivity (PSR sort gate): high polyreactivity

QVQHVESGGGIVQAGGSLRLSCAASGSTIVDNYMGWYRQAPGKERELVAVINSGGSTYYADSVKGRFTISRDNAKNTGYLQMNSLKPEDTAVYYCAADDIPYGSVYTSIGLDYWGQGTQVTVSS
polyreactivity (PSR sort gate): low polyreactivity

QVQLVETGRGLVQAGGSLRLSSAASGFTFGPYDMGWYIQAPGKERELVATIRSGDSTKYADSVKGRFTISRDNAKNTVYLQMNSLKPEDSAGYYCARDARASARRKRDDYWGQGTQVTVSS
polyreactivity (PSR sort gate): low polyreactivity

QVQLVESGGGLVQAGGSLRLSCAASGSIFYFHALGWYRQAPGKERELVAAITRRGGSTRYADSVKGRFTISRDNAKNTVYLQMNSLKPEDTAVYYCAAVKEYSYSYKSYDVYYWGQGTQVTVSS
polyreactivity (PSR sort gate): high polyreactivity

QVQLVESGGGLVQAGGSLRLSCAASGRTFEYYAMGWYRQAPGKEREFVAAISRSGGSTYYADSVKGRFTISRDNAKNTVYLQMNSLKPEDTAVYYCAASAIRRSQRFYHWGQGTQVTVSS
polyreactivity (PSR sort gate): high polyreactivity

QVQLVESGGGLVQAGGSLRLSCAASGRMFGPYTMGWYRQAPGKEREFVAAITRRGGSTYYADSVKGRFTFSRDNAKNTVYLQMNSLKPEDTAVYYCAAVGQNRSLGYSWGQGTQVTVSS
polyreactivity (PSR sort gate): low polyreactivity

QVQLVESGGGLVQAGASLRLSCAASGRTFWYNAMGGYRQAPGKERELVAAISSTGGRTYYADSVKGRFTISRDNAKNTVYLQMNSLKPEDTAVYYCAARQLSSHYDYWGQGTQVTVSS
polyreactivity (PSR sort gate): low polyreactivity

QVQLVESGGGLVQAGGSLRLSCADSGRTFYRNAMGWYRQAPGKERELVAAITWSAGSTYYADSVKGRFTISRDNAKNTVYLQMNSLKPEDSAVYYCAKYPSKSYVPGDYWGQGTQVTVSS
polyreactivity (PSR sort gate): low polyreactivity

QVQLVESGGGLVQAGGSLRLSCAASGSTPDGYGMGWYRQAPGKERELVAVITIGGGRTYYADSVKGRFTISRDNAKNTVYLQMNSLKAVDTAVYYCAAKGWRRYYIGDYWGQGTQVTVSS
polyreactivity (PSR sort gate): high polyreactivity

QVQLVESGGGLVQAGGSLRLSCPASGSIFPHYAMGWYRQAPGKERELVAAISRSGTSTYYADSVKGRFTISRDNAKNTVYLQMNSLKPEDTAVYYCNAYQVYTRTYGYWGQGTQVTVSS
polyreactivity (PSR sort gate): high polyreactivity

QVQLVESGGGLVQAGGSLRLSCAASGIIFGRYAMGWYRQAPGKERELVAAINASGGSTYYADSVKGRFTISRDNAKNTVYLQMNSLKPEDTAVYYCATRSTRSRTSGYYYWGQGTQVTVSS
polyreactivity (PSR sort gate): high polyreactivity

QVQLVESGGGLVQAGVSLRLSCAASGRIFYHNAMGWYRQAPGKEREFVAAISSRGGTTYYADSVKGRFTISRDNAKKTVYLQMNILKPEDTAVYYCAKQYYSASPAKGDYWGQGTQVTVSS
polyreactivity (PSR sort gate): high polyreactivity

QVQLVESGGGLVQAGGSLRLSCAASGSIFTHNAMGWYRQAPGKVREFVAAISSGGSTNYADSVKGRFTISRDNAKNTVYSQMNSLKPEDTAVYYCAKSIDGWYWRRRRYDYWGQGTQVTVSS
polyreactivity (PSR sort gate): low polyreactivity

QVQLVESGGGLVQAGGSLRLSCAASGSILYWNAMGWYRQAPGKERELVADITWRGGSTYADSVKGRFTISRDNAKNTVYLQMNSLKPEDTAVYYCNAVPVRGSAPRYRQTYSYWGQGTQVTVSS
polyreactivity (PSR sort gate): high polyreactivity

QVQLVESGGGLVQAGGSLRLSCAASGSTFYGYAMGWYRQAPGKDRELVAAISSGGRTNYADSVKGRFTISRDNAKNTVYLQLHSLKPEDTAVYYCNARRIYGWWEFDYWGQGTQVTVSS
polyreactivity (PSR sort gate): low polyreactivity

QVQLVESCGGLVQAGGSLRLSCAASGRTFRYYAMGWYRQAPWKERELVAAIRRGGSTTYADSVKGRFTISRDNAKNTVYLQMNSLKPEDTAVYYCAARYPGTRGDGYWGQGTQVTVSS
polyreactivity (PSR sort gate): high polyreactivity

QVQLLESGAGLVHAGGSLRISCAASGRTFGLNAMAWNPPAHGKETELVAAISSSGGSTYYADSVKGRFTISRDNPKNTVYLQMNSLTPEDTAVYYCAKVLNRYGTAYYYWGQGTQVTVSS
polyreactivity (PSR sort gate): high polyreactivity

QVQLVESGGGLVQAGGSLRLSCAASGSTFSAYTMGWYRQAPGKERELVARITNGGSTYYADSVKGRFTISRDNAKNTVYLQMNSLKPEDTAVYYCNVQYYVSYWRSYDYWGQGTQVTVSS
polyreactivity (PSR sort gate): high polyreactivity

QVHHVESGGGLVQAGGSLRLSCADSGSIFTYYAMGWYRQAPGKERDLVAAINSGGRTNYADSVKGRFTISRDNAKNTVYLQMNSLKPVDTAVYYCANYGVLQYGYWGQGTQVTVSS
polyreactivity (PSR sort gate): low polyreactivity

QVQLVESGGGLVQAGGSLRLSCAASGNIFRSYMGWYRQAPGKERELVASISRRGGSTYYADSVKGRFTISRDNAKNTVYLQMNSLKPEDTAVYYCARRWSWVNGVFGYYWGQGTQVTVSS
polyreactivity (PSR sort gate): high polyreactivity

QVQLVESGGGLVQAGGSLRLSCAASGNIFARYAMGWYRQAPGKEREMVARISESGGRTYYADSVKARFTISRDNAKNTVYLQMNSLKPEDTAVYYCADRRYIQYGFKFYYWGQGTQLTVSS
polyreactivity (PSR sort gate): high polyreactivity
